Reference: paper PMC6451128, “Structural and functional analysis of the nucleotide and DNA binding activities of the human PIF1 helicase”
Where a chain is given by its changes, count along the chain named.

Legend:
Test in all cases: EMSA; no nucleotide; 20 mM HEPES-NaOH pH 7.5 (Results say pH 7.2), 135 mM NaCl, 5% glycerol, 1 mM DTT, 1 mg/ml BSA, 20 min at 20 C; 0.4 nM T(35); G4 assay: 0.1 nM G4 DNA, 2% PEG 8000 instead of glycerol, 5 uM T(35) competitor
Settings in all cases: protein: recombinant; tags: His tag removed, GSRM left; label: 5' 32P (PNK)
[1] = biological target: T1, hPIF1HD N486A (human, UniProt Q9H611 206-620, N486A)
T1 sequence: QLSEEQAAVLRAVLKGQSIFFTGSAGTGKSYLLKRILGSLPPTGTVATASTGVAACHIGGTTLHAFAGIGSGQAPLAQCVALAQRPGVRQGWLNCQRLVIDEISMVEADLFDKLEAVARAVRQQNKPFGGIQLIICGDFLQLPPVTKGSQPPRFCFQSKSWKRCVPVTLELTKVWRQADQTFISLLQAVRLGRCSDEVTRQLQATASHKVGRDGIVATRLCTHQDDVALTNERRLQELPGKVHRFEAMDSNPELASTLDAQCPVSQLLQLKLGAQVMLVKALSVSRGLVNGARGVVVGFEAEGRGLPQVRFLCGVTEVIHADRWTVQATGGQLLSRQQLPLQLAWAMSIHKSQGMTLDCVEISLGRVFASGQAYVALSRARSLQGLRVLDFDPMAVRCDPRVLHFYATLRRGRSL

[2] = biological target: T2, hPIF1HD N495A (human, UniProt Q9H611 206-620, N495A)
T2 sequence: T1 sequence with A281N, N290A

[3] = biological target: T3, hPIF1HD K485E (human, UniProt Q9H611 206-620, K485E)
T3 sequence: T1 sequence with K280E, A281N

Measured: binding signal

B1: poly-T(35) (ssDNA)
DNA: TTTTTTTTTTTTTTTTTTTTTTTTTTTTTTTTTTT
> 50 fold decrease in affinity vs WT: [1] | [2] | [3]
